Assay results taken from patent US12570725 (DUKE UNIVERSITY, dated 2026).

Tests used:
Assay in all cases: cell-based or functional assay
[1] = target: Dengue virus serotype 2 virion (Dengue virus serotype 2)
[2] = target: Dengue virus serotype 4 virion (Dengue virus serotype 4)
[3] = target: Dengue virus serotype 3 virion (Dengue virus serotype 3)
[4] = target: Dengue virus serotype 1 virion (Dengue virus serotype 1)

Measured: FRNT50

B1: 119-1-D7 (antibody, V domains shown)
VH: EVQLVESGGGLVKPGGSLRLSCVASGFTFNIYNMNWVRQAPGRGLEWVSSISLSSSYIDYADSVEGRFTISRDNAKNSLSLQMNSLKAEDTAVYYCARGRRGEWLVLHDAFDLWGQGTLVTVSS
VL: EIVLTQSPDTLSLSPGEGATLSCRASRTITSTYLAWYQQKPGQAPRLLMYSVSTRAPGIPDRFSGSGSGTDFTLTISRLEPEDFAVYFCQQYGSTPPYTFGQGTKLEIR
> 5 µg/mL: all assays above
